Measurements reported in PMC7380208.

Target: Flt3 Receptor Interacting Lectin (FRIL) from Lablab purpureus (Lablab purpureus) (UniProt Q9ZTA9)
Assay: SEC-MALS

Substance: Flt3 Receptor Interacting Lectin (FRIL) from Lablab purpureus (from UniProt Q9ZTA9) (natural protein)
- stoichiometry N: 4
